Test results: patent US20200332017A1 (SALUBRIS CHENGDU BIOTECH, published 2020)
Values belong to the binder of their own block, whether it stands above or below them.

Legend:
[1] = biological target: T1, human CD40-Fc protein (amino acid residue 21-193 of SEQ ID NO: 67 linked to N-terminus of amino acid residue … (human, biotin-labeled in the capture ELISA and in the benchmark blocking ELISA; unlabeled when coated in the ligand blocking ELISA); test: capture ELISA; antibody captured, biotin-labeled human CD40-Fc in solution
T1 construct: also called biotin-labeled human CD40-Fc; human CD40-Fc-biotin
Description: (§1) Plates were washed 4 times with wash buffer (PBS+0.05% Tween-20, PBST) and then blocked with 200 μl/well blocking buffer (5% w/v non-fatty milk in PBST) for 2 hours at 37° C. […] After a final wash, plates were incubated with 100 μl/well ELISA substrate TMB (Innoreagents, Cat # TMB-S-002). The reaction was stopped in 15 minutes at 25° C. with 50 μl/well 1M H₂SO₄, and the absorbance was read at 450 nm and plotted against antibody concentration. Data were analyzed using Graphpad Prism software and EC₅₀ values were reported.

[2] = biological target: T1, human CD40-Fc protein (amino acid …); test: ligand blocking ELISA: human CD40-Fc coated, antibody titrated, then biotin-labeled human CD40L-his (blocked ligand), streptavidin-HRP, OD(450-630)
Description: (§2) Serially diluted the mouse anti-CD40 antibodies of the present invention or the controls (starting at 200 nM with a four-fold serial dilution) in 2.5% w/v non-fatty milk in PBST were prepared to the plates and incubated with the human CD40-Fc proteins at room temperature for 40 minutes. […] Plates were washed again. 100 μl/well of streptavidin conjugated HRP was added and incubated for 40 minutes at 37° C. Plates were washed again using wash buffer. Finally, TMB was added and the reaction was stopped using 1M H₂SO₄, and the absorbance was read at 450 nm. Data were analyzed using Graphpad Prism software and IC₅₀ values were reported.

[3] = biological target: T1, human CD40-Fc protein (amino acid …); test: competitive ELISA; biotin human CD40-Fc in solution, competitor coated BM2
Description: (§3) The ability of the mouse anti-CD40 antibodies of the present invention to block the binding of the Benchmark to human CD40 was measured using a competitive ELISA assay. […] The next day, plates were washed with wash buffer, and blocked with 5% w/v non-fatty milk in PBST for 2 hours at 37° C. Plates were then washed again using wash buffer. […] After incubation at 37° C. for 40 minutes, plates were washed 4 times using wash buffer. Then streptavidin conjugated HRP was added and incubated for 40 minutes at 37° C. to detect biotin-labeled human CD40-Fc bound to plates. Plates were washed again using wash buffer. Finally, TMB was added and the reaction was stopped using 1M H₂SO₄, and the absorbance was read at 450 nm. Data were analyzed using Graphpad Prism software and IC₅₀ values were reported.
In the capture ELISA test, a mouse control antibody targeting a protein other than CD40 was used.

[4] = biological target: T1, human CD40-Fc protein (amino acid …); test: capture ELISA, biotin human CD40-Fc; mAb at 0.64 ng/mL
Description: as §1

[5] = biological target: T2, full length human CD40 (uniprot # P25942-1) on the membrane of 293T-CD40 cells (human, UniProt P25942 21-277); test: flow cytometry on 293T-CD40 cells, PE-labeled secondary antibody, MFI
T2 construct: also called cell surface CD40
Description: 2×10⁵ cells per well in 96 well-plates were incubated with the mouse anti-CD40 antibodies or the controls of various concentrations in FACS buffer for 40 minutes on ice. […] Following an incubation of 40 minutes at 4° C. in dark, cells were washed three times and resuspended in FACS buffer. Fluorescence was measured using a Becton Dickinson FACS Canto II-HTS equipment and plotted against antibody concentration.

[6] = biological target: T1, human CD40-Fc protein (amino acid …); test: competitive ELISA; coated human CD40-Fc, competitor biotin human CD40L-his
Description: as §2

[7] = biological target: T1, human CD40-Fc protein (amino acid …); test: capture ELISA, biotin human CD40-Fc; mAb at 3.2 ng/mL
Description: as §1

[8] = biological target: T1, human CD40-Fc protein (amino acid …); test: capture ELISA, biotin human CD40-Fc; mAb at 16 ng/mL
Description: as §1

[9] = biological target: T1, human CD40-Fc protein (amino acid …); test: benchmark blocking ELISA: BM2 (Selicrelumab) coated as competitor, antibody titrated in biotin-labeled human CD40-Fc solution, streptavidin-HRP, OD(450-630)
Description: as §3

[10] = biological target: T3, cynomolgus monkey CD40-his protein (Acro biosystems, Cat # CD0-052H6) (cynomolgus monkey, UniProt G7PG38 21-193); test: SPR, Biacore; cynomolgus CD40-his
T3 construct: Bought reagent; also called Cynomolgus CD40-his
Text: Briefly, goat anti-mouse IgG (GE healthcare, Cat # BR100838, Mouse Antibody Capture Kit) was covalently linked to a CM5 or a Protein G chip (carboxy methyl dextran coated chip) via primary amines, using a standard amine coupling kit provided by Biacore (GE healthcare, Pittsburgh, Pa., USA). Un-reacted moieties on the biosensor surface were blocked with ethanolamine. […] Then, human CD40-his (Acro biosystems, Cat # CD0-H5228) or cynomolgus monkey CD40-his protein (Acro biosystems, Cat # CD0-052H6) in HBS EP buffer (provided by Biacore) was flowed onto the chip at a flow rate of 30 μL/min. The antigen-antibody association kinetics was followed for 2 minutes and the dissociation kinetics was followed for 10 minutes. The association and dissociation curves were fit to a 1:1 Langmuir binding model using BIA evaluation software.

EC50 [1]: 0.000155 µg/mL
IC50 (read off the curve) [2]: ~0.8 µg/mL
IC50 [3]: 0.461 nM
absorbance at 450 nm [4]: 0.142 OD450
EC50 (read off the curve) [5]: ~0.3 µg/mL
IC50 [6]: 5.4 nM
absorbance at 450 nm [7]: 0.288 OD450
absorbance at 450 nm [8]: 0.764 OD450
IC50 (read off the curve) [9]: ~0.5 nM
Kd [10]: 2.35 nM
B1: mouse anti-CD40 monoclonal antibody C1C1 (antibody, V domains shown)
VH: EVKLVESGGGLVKPGASLKLSCAASGFTFSNYGMSWVRQNSDKRLEWVASISSGGDDTYYPDNVKGRCTISRENAKNTLYLEMSSLKTEDTALYYCTRAGGKAMDYWGQGTSVTVST
VL: DIVLTQSPATLSVIPGNSVSLSCRASQSIRDNLHWYQQKSHESPRLLINYASQSISGIPSRFSGSGSGTDFTLTINSVETEDFGIYFCQQFNSWPLTFGGGTKLELK
notes: those are used here for the chimeric antibody only; also called Mouse C1C1; mouse C1C1

EC50 [1]: 0.000384 µg/mL
IC50 (read off the curve) [2]: ~0.8 µg/mL
IC50 [3]: 0.13 nM
absorbance at 450 nm [4]: 0.035 OD450
EC50 (read off the curve) [5]: ~0.3 µg/mL
IC50 [6]: 4.83 nM
absorbance at 450 nm [7]: 0.082 OD450
absorbance at 450 nm [8]: 0.329 OD450
IC50 (read off the curve) [9]: ~0.02 µg/mL
Kd [10]: 2.34 nM
B2: chimeric antibody C1C1 (antibody, human IgG1, kappa, V domains shown)
VH: B1 VH
VL: DIVLTQSPATLSVIPGNSVSLSCRASQSIRDNLHWYQQKSHESPRLLINYASQSISGIPSRFSGSGSGTDFTLTINSVETEDFGIYFCQQFNSWPLTFGGGTKLELKR
notes: also called chC1C1; chimeric C1C1
